Experimental data as given in US20240132603A1 (HARBOUR BIOMED US, published 2024).
Substitutions are numbered along the chain they refer to. Names may count otherwise. Where two headings read alike, the source gives them in different places.

B1: PR006275AF (antibody, human IgG1, kappa)
heavy: not shown
light: DIVMTQSPLSLPVTLGQPASISCRSSKSLLHSNAKIYLYWFQQRPGQSPRLLIYRMSNLASGVPDRFSGSGSGTDFTLKISRVEAEDVGVYYCMQHLEYPLTFGQGTKLEIKRTVAAPSVFIFPPSDEQLKSGTASVVCLLNNFYPREAKVQWKVDNALQSGNSQESVTEQDSKDSTYSLSSTLTLSKADYEKHKVYACEVTHQGLSSPVTKSFNRGEC
modifications: afucosylated (AF) Fc glycan, produced with 2-fluoro peracetylated fucose
notes: also called PR00PR006275AF; R00PR006275AF
B2: PR006276AF (antibody, human IgG1, kappa)
heavy: not shown
light: B1 light
modifications: afucosylated (AF) Fc glycan, produced with 2-fluoro peracetylated fucose
B3: PR004128 (antibody, human IgG1, kappa)
heavy: not shown
light: DIVMTQAAPSVPVTPGESVSISCRSSKSLLHSNGKIYLYWFLQRPGQSPQLLIYRMSNLASGVPDRFSGSGSGTAFTLRISRVEAEDVGVYYCMQHLEYPLTFGAGTKLEIKRTVAAPSVFIFPPSDEQLKSGTASVVCLLNNFYPREAKVQWKVDNALQSGNSQESVTEQDSKDSTYSLSSTLTLSKADYEKHKVYACEVTHQGLSSPVTKSFNRGEC
notes: chimeric, human IgG1 constant region; also called RP004128; PRO4128
B4: PR004250 (antibody, human IgG1, kappa)
heavy: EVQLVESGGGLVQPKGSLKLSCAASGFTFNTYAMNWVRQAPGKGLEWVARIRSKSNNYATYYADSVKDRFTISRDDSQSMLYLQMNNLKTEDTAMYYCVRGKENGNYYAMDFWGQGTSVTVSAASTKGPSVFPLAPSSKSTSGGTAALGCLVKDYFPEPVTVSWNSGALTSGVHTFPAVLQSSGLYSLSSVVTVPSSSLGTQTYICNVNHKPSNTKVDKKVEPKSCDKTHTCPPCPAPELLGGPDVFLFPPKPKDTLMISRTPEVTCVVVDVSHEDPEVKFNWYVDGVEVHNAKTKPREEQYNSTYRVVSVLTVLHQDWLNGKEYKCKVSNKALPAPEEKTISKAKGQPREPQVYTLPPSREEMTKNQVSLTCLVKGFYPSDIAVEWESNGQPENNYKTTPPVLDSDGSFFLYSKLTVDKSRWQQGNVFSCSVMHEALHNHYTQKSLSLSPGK
light: B3 light with K35N, I36T, I111M
notes: PR004125 with S239D and I332E (DE) in the IgG1 constant region
B5: PR004131 (antibody, human IgG1, kappa)
heavy: not shown
light: B3 light with S26N, K35N, I36T
notes: chimeric, human IgG1 constant region
B6: PR004121 (antibody, human IgG1, kappa, V domains shown)
VH: EVQLVESGGGLVQPKGSLKLSCAASGFTFNTYAMNWVRQAPGKGLEWVARIRSKSNNYATYYADSVKDRFTISRDDSQNMLYLQMNNLKTEDTAMYYCVRGKENGNYYAMDFWGQGTSVTVSS
VL: DIVITQAAPSVPVTPGESVSISCRSSKSLLHSNGNTYLYWFLQRPGQSPQLLIYRMSNLASGVPDRFSGSGSGTAFTLRISRVEAEDVGVYYCMQHLEYPFTFGGGTKLEMKR
notes: as for B5

Columns and labels:
human CCR8 [1] = molecular target: T1, human CCR8 (human, UniProt P51685 1-355); test: FACS, CHO-K1-hCCR8 cells
T1 construct: whole, on cells; construct used for the overexpressing cell lines is not described; also called hCCR8
T1 sequence (P51685 whole entry): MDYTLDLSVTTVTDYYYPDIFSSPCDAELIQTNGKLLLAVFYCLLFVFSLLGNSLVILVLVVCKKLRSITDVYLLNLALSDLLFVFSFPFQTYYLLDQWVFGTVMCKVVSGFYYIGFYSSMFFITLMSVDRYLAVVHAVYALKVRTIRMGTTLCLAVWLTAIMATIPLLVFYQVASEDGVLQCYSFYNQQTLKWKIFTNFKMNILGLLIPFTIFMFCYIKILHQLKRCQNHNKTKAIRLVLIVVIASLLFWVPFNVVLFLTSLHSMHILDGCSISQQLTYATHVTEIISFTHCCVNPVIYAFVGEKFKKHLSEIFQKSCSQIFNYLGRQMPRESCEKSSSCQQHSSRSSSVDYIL
Method in brief: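 CCR8-overexpressing cells were stained for 1 h at 4 °C with anti-CCR8 antibodies in a 5-fold series from 200 nM. After a 1:1000 secondary antibody for 40 min at 4 °C, binding was read by flow cytometry.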

human CCR8 [2] = molecular target: T1, human CCR8; test: cell-based or functional assay
cynomolgus monkey CCR8 [3] = molecular target: T2, cynomolgus monkey CCR8 (cynomolgus monkey, UniProt G7NYJ2 1-355); test: FACS, CHO-K1-CynoCCR8 cells
T2 construct: whole, on cells; also called CynoCCR8
T2 sequence (G7NYJ2 entry or part of it): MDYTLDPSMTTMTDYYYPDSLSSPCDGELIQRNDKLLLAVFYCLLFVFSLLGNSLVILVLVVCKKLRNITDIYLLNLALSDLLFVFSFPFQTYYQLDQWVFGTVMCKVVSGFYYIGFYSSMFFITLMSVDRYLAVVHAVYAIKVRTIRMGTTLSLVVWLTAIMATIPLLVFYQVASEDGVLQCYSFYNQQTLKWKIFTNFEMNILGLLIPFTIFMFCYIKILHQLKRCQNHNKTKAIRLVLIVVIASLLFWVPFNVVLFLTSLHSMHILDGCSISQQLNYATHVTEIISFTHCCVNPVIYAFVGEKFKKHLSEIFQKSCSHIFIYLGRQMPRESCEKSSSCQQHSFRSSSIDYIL
Method in brief: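 Anti-CCR8 antibodies titrated in 5-fold steps from 200 nM onto 1E6 cells/mL CHO-K1-CynoCCR8 in DPBS/2% FBS, 1 h at 4 °C. Bound antibody detected with 1:1000 secondary antibody, 40 min at 4 °C, then flow cytometry.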

cynomolgus monkey CCR8 [4] = molecular target: T2, cynomolgus monkey CCR8; test: FACS, CHO-K1-CynoCCR8 cells; remark: listed apart in the source
Protocol: (§1) Cells overexpressing cynomolgus monkey CCR8, CHO-K1-CynoCCR8, were digested with pancreatin, counted and resuspended to a cell density of 1E6 cells/mL. The cell suspension was added to a 96-well V-bottom plate at 100 μL/well and centrifuged at 300 g for 5 min, and the supernatant was discarded. The anti-CCR8 antibodies provided herein was used as a primary antibody and diluted in a 5-fold gradient with an FACS buffer (DPBS containing 2% FBS) from 200 nM. The diluted primary antibody was added at 100 μL/well to resuspend the cells, and the mixture was incubated at 4° C. for 1 h. The plate was washed twice with DPBS and centrifuged at 300×g for 5 min, and the supernatant was discarded. The secondary antibody diluted in a 1:1000 ratio with an FACS buffer was added at 100 μL/well to suspend the cells, and the mixture was incubated at 4° C. for 40 min. The plate was washed twice with DPBS and centrifuged at 300×g for 5 min, and the supernatant was discarded. DPBS was added at 200 μL/well to suspend the cells, and the mixture was loaded on an FACS machine for analysis.

human CCR8 [5] = molecular target: T1, human CCR8; test: FACS, CHO-K1-hCCR8 cells; remark: listed apart in the source
Protocol: as §1, with “human CCR8” for “cynomolgus monkey CCR8, CHO-K1-CynoCCR8,”

human CCR8 [6] = molecular target: T1, human CCR8; test: cell-based or functional assay; remark: listed apart in the source
cynomolgus monkey CCR8 [7] = molecular target: T2, cynomolgus monkey CCR8; test: FACS, CHO-K1-CynoCCR8 cells; remark: listed apart in the source
Protocol: as §1

human CCR8 [8] = molecular target: T1, human CCR8; test: FACS competition on HEK293-hCCR8 cells against a biotin-labelled anti-CCR8 antibody at its EC80; the labelled antibody of this panel is not named on the sheet
Protocol: (§2) The antibody was conjugated with Sulfo-NHS-LC-Biotin at a molar ratio of 5:1 (1 mol antibody was added to 5 mol Sulfo-NHS-LC-Biotin) with reference to the product instructions (ThermoFisher, Cat No. A39257) and incubated on ice for 2 h. The coupled antibody was purified with a Zeba desalting column (ThermoFisher, Cat No. 89882). Cells overexpressing human CCR8, HEK293-hCCR8, were added to a V-bottom 96-well plate at a density of 1E5 cells/well and centrifuged at 300 g for 5 min, and the supernatant was discarded. The competitive antibody was serially diluted in a ratio of 1:10 from 200 nM to obtain 8 concentration points. The Biotin-antibody and the competition antibody were mixed in a 1:1 ratio on an HEK293 cell line overexpressing human CCR8 by the binding EC₈₀ concentration. The cells in the 96-well plate were resuspended and incubated at 4° C. for 1 h. The plate was washed twice with DPBS at 200 μL/well. The secondary antibody diluted in a 1:1000 ratio was added at 100 μL/well, and the mixture was incubated at 4° C. for 40 min. The plate was washed twice with DPBS at 200 μL/well. Finally, DPBS was […] at 200 μL/well to suspend the cells, and the mixture was loaded on an FACS machine for analysis.

human CCR8 [9] = molecular target: T1, human CCR8; test: FACS, CHO-K1-hCCR8 cells; remark: listed apart in the source
Protocol: as §1, with “human CCR8” for “cynomolgus monkey CCR8, CHO-K1-CynoCCR8,”

human CCR8 [10] = molecular target: T1, human CCR8; test: FACS, HEK293-hCCR8 cells
Protocol: as §1, with “human CCR8” for “cynomolgus monkey CCR8, CHO-K1-CynoCCR8,”

human CCR8 [11] = molecular target: T1, human CCR8; test: FACS, HEK293-hCCR8 cells; remark: listed apart in the source
Protocol: as §1, with “human CCR8” for “cynomolgus monkey CCR8, CHO-K1-CynoCCR8,”

human CCR8 [12] = molecular target: T1, human CCR8; test: FACS competition on HEK293-hCCR8 cells against a biotin-labelled anti-CCR8 antibody at its EC80; the labelled antibody of this panel is not named on the sheet; remark: listed apart in the source
Protocol: as §2

human CCR8 [13] = molecular target: T1, human CCR8; test: FACS, Baf3-hCCR8 cells
Protocol: as §1, with “human CCR8” for “cynomolgus monkey CCR8, CHO-K1-CynoCCR8,”

human CCR8 [14] = molecular target: T1, human CCR8; test: FACS, CHO-K1-hCCR8 cells; remark: listed apart in the source
Protocol: as §1, with “human CCR8” for “cynomolgus monkey CCR8, CHO-K1-CynoCCR8,”

cynomolgus monkey CCR8 [15] = molecular target: T2, cynomolgus monkey CCR8; test: FACS, CHO-K1-CynoCCR8 cells; remark: listed apart in the source
Protocol: as §1

human CCR8 [16] = molecular target: T1, human CCR8; test: FACS competition on HEK293-hCCR8 cells against a biotin-labelled anti-CCR8 antibody at its EC80; the labelled antibody of this panel is not named on the sheet; remark: listed apart in the source
Protocol: as §2

human CCR8 [17] = molecular target: T1, human CCR8; test: as above; remark: listed apart in the source
Protocol: as §2

human CCR8 [18] = molecular target: T1, human CCR8; test: as above; remark: listed apart in the source
Protocol: as §2

Binder	EC50 (human CCR8 [1]) [nM]	EC50, ADCC reporter gene activity (Jurkat/FcγR III-NFAT effector cells) (human CCR8 [2]) [nM]	EC50 (cynomolgus monkey CCR8 [3]) [nM]	EC50 (cynomolgus monkey CCR8 [4]) [nM]	EC50 (human CCR8 [5]) [nM]	Bottom %, blocking of CCL1-stimulated calcium flux (human CCR8 [6]) [%]	IC50(nM), blocking of CCL1-stimulated calcium flux (human CCR8 [6]) [nM]	EC50 (cynomolgus monkey CCR8 [7]) [nM]	IC50 (read off the curve) (human CCR8 [8]) [nM]	EC50 (human CCR8 [9]) [nM]	EC50 (human CCR8 [10]) [nM]	EC50 (human CCR8 [11]) [nM]	IC50 (read off the curve) (human CCR8 [12]) [nM]	EC50 (human CCR8 [13]) [nM]	EC50 (human CCR8 [14]) [nM]	EC50 (cynomolgus monkey CCR8 [15]) [nM]	IC50 (read off the curve) (human CCR8 [16]) [nM]	IC50 (read off the curve) (human CCR8 [17]) [nM]	IC50 (read off the curve) (human CCR8 [18]) [nM]
B1	0.4	2.6	0.51	–	–	–	–	–	–	–	–	–	–	–	–	–	–	–	–
B2	0.39	1.66	0.5	–	–	–	–	–	–	–	–	–	–	–	–	–	–	–	–
B3	0.42	–	0.83	2.26	0.91	7	1.51	4.73	~3	2.54	4.53	0.87	~2	0.14	0.55	7.39	~2	~2	1 to 2
B4	–	0.04	–	–	–	–	–	–	–	–	1.66	–	–	–	–	3.5	–	–	–
B5	0.52	–	1.6	–	–	0	1.67	–	~3	–	1.94	0.79	~2	0.2	–	8.65	~2	~2	1 to 2
B6	0.41	–	–	–	–	0	1.44	–	~3	–	0.9	0.63	~2	0.22	–	–	~2	~2	1 to 2
